Test results taken from patent publication US20190169289A1.

How the values were obtained:
CART19 = assay: flow cytometry of CART19 T cells; filled histogram with a second population at about 10^3-10^4 against a dashed control histogram; the legend names an AF647 conjugate, the axis prints APC
[1] = target: anti-GCN4 (52SR4 scFv) sCAR with CD8 hinge; assay: flow cytometry of CD8 sCAR T cells; filled histogram with a second peak at about 10^4 against a dashed control histogram; the legend names an AF647 conjugate, the axis prints APC
[2] = target: HLA molecules on T2 cells loaded with the NY-ESO-1 peptide; assay: cell-based or functional assay

Sequence of CART19 (chimeric antigen receptor, as listed by the source limits assumed): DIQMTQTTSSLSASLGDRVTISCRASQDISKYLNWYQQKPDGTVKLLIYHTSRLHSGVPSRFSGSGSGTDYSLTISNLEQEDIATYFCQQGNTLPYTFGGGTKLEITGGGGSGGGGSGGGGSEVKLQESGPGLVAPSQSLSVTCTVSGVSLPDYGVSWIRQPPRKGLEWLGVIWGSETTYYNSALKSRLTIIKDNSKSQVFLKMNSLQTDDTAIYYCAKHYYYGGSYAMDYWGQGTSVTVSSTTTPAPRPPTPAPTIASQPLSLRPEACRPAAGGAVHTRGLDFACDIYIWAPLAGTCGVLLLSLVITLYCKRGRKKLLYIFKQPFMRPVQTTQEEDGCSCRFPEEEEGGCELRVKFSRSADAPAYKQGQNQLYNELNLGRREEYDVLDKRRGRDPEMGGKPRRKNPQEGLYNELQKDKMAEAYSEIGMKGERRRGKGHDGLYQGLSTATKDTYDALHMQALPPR
Sequence of anti-GCN4 (52SR4 scFv) sCAR with CD8 hinge (chain, as listed by the source limits assumed): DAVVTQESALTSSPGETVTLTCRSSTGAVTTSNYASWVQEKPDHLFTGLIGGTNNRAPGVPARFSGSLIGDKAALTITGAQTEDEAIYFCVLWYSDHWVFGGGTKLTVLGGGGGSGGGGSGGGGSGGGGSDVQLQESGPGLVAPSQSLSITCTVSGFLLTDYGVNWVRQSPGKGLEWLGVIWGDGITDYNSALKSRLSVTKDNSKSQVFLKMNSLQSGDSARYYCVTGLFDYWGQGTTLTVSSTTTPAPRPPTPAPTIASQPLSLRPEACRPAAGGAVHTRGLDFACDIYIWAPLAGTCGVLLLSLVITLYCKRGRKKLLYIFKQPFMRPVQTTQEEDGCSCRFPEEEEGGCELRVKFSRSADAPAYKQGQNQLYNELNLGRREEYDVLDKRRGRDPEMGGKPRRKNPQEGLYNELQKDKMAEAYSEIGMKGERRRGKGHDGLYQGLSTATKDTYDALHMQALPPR

| Substance | number beside the gate bar of the histogram (share of cells in the positive gate; name not given) (CART19) | number beside the gate bar of the histogram (share of cells in the positive gate; name not given) [1] | sTCR switch concentration at which IFNg, IL-2 and TNFa are produced [2] [pM] | sTCR switch concentration at which T cells express CD25 and CD69 [2] [pM] |
| --- | --- | --- | --- | --- |
| APC-conjugated goat-anti mouse IgG (H&L) polyclonal antibody | 53.3 | 69.3 |  |  |
| NY-ESO-1 specific soluble TCR 1G4c113 with C-terminal GCN4 peptide and 6x HIS tag on the beta chain |  |  | > 10 | > 1 |
